Results as given in article PMC6804253, “Predicting and Experimentally Validating Hot-Spot Residues at Protein–Protein Interfaces” (ACS Chemical Biology, 2019).
Where a chain is given by its changes, count along the chain named.

B1: 1A4Y DA435A (protein, UniProt P13489 2-461, looked up, variant D435A)
Ribonuclease inhibitor: SLDIQSLDIQCEELSDARWAELLPLLQQCQVVRLDDCGLTEARCKDISSALRVNPALAELNLRSNELGDVGVHCVLQGLQTPSCKIQKLSLQNCCLTGAGCGVLSSTLRTLPTLQELHLSDNLLGDAGLQLLCEGLLDPQCRLEKLQLEYCSLSAASCEPLASVLRAKPDFKELTVSNNDINEAGVRVLCQGLKDSPCQLEALKLESCGVTSDNCRDLCGIVASKASLRELALGSNKLGDVGMAELCPGLLHPSSRLRTLWIWECGITAKGCGDLCRVLRAKESLKELSLAGNELGDEGARLLCETLLEPGCQLESLWVKSCSFTAACCSHFSSVLAQNRFLLELQISNNRLEDAGVRELCQGLGQPGSVLRVLWLADCDVSDSSCSSLAATLLANHSLRELDLSNNCLGDAGILQLVESVRQPGCLLEQLVLYAIYWSEEMEDRLQALEKDKPSLRVIS
B2: 1A4Y RA457A (protein, UniProt P13489 2-461, looked up, variant R457A)
Ribonuclease inhibitor: B1 Ribonuclease inhibitor with A435D, R457A
B3: 1DAN ST47A (protein, UniProt P13726 33-295, looked up, variant S47A)
Tissue factor: SGTTNTVAAYNLTWKSTNFKTILEWEPKPVNQVYTVQISTKSGDWKAKCFYTTDTECDLTDEIVKDVKQTYLARVFSYPAGNVESTGSAGEPLYENSPEFTPYLETNLGQPTIQSFEQVGTKVNVTVEDERTLVRRNNTFLSLRDVFGKDLIYTLYYWKSSSSGKKTAKTNTNEFLIDVDKGENYCFSVQAVIPSRTVNRKSTDSPVECMGQEKGEFREIFYIIGAVVFVVIILVIILAISLHKCRKAGVGQSWKENSPLNVS
B4: 1DAN TT60A (protein, UniProt P13726 33-295, looked up, variant T60A)
Tissue factor: B3 Tissue factor with A47S, T60A
B5: 1DAN TT17A (protein, UniProt P13726 33-251, looked up, variant T17A)
extracellular domain: SGTTNTVAAYNLTWKSANFKTILEWEPKPVNQVYTVQISTKSGDWKSKCFYTTDTECDLTDEIVKDVKQTYLARVFSYPAGNVESTGSAGEPLYENSPEFTPYLETNLGQPTIQSFEQVGTKVNVTVEDERTLVRRNNTFLSLRDVFGKDLIYTLYYWKSSSSGKKTAKTNTNEFLIDVDKGENYCFSVQAVIPSRTVNRKSTDSPVECMGQEKGEFRE
modifications: extracellular domain
B6: 1DAN SU163A (protein, UniProt P13726 33-251, looked up, variant S163A)
extracellular domain: B5 extracellular domain with A17T, S163A
modifications: extracellular domain
B7: 1DAN TT21A (protein, UniProt P13726 33-251, looked up, variant T21A)
extracellular domain: B5 extracellular domain with A17T, T21A
modifications: extracellular domain
B8: 1DAN QU110A (protein, UniProt P13726 33-251, looked up, variant Q110A)
extracellular domain: B5 extracellular domain with A17T, Q110A
modifications: extracellular domain
B9: 1DAN TU197A (protein, UniProt P13726 33-251, looked up, variant T197A)
extracellular domain: B5 extracellular domain with A17T, T197A
modifications: extracellular domain
B10: 1DAN TU139A (protein, UniProt P13726 33-251, looked up, variant T139A)
extracellular domain: B5 extracellular domain with A17T, T139A
modifications: extracellular domain
B11: 1DAN TU203A (protein, UniProt P13726 33-251, looked up, variant T203A)
extracellular domain: B5 extracellular domain with A17T, T203A
modifications: extracellular domain
B12: 1DAN ST42A (protein, UniProt P13726 33-251, looked up, variant S42A)
extracellular domain: B5 extracellular domain with A17T, S42A
modifications: extracellular domain
B13: 1DAN NU107A (protein, UniProt P13726 33-251, looked up, variant N107A)
extracellular domain: B5 extracellular domain with A17T, N107A
modifications: extracellular domain
B14: 1DAN TU132A (protein, UniProt P13726 33-251, looked up, variant T132A)
extracellular domain: B5 extracellular domain with A17T, T132A
modifications: extracellular domain
B15: 1DAN NT18A (protein, UniProt P13726 33-251, looked up, variant N18A)
extracellular domain: B5 extracellular domain with A17T, N18A
modifications: extracellular domain
B16: 1DAN TU172A (protein, UniProt P13726 33-251, looked up, variant T172A)
extracellular domain: B5 extracellular domain with A17T, T172A
modifications: extracellular domain
B17: 1DAN TT52A (protein, UniProt P13726 33-251, looked up, variant T52A)
extracellular domain: B5 extracellular domain with A17T, T52A
modifications: extracellular domain
B18: 1EMV NA24A (protein, UniProt P13479 1-86, looked up, variant N24A)
Colicin-E9 immunity protein: MELKHSISDYTEAEFLQLVTTICAADTSSEEELVKLVTHFEEMTEHPSGSDLIYYPKEGDDDSPSGIVNTVKQWRAANGKSGFKQG
B19: 1EMV TA44A (protein, UniProt P13479 1-86, looked up, variant T44A)
Colicin-E9 immunity protein: B18 Colicin-E9 immunity protein with A24N, T44A
B20: 1EMV SA48A (protein, UniProt P13479 1-86, looked up, variant S48A)
Colicin-E9 immunity protein: B18 Colicin-E9 immunity protein with A24N, S48A
B21: 1EMV SA63A (protein, UniProt P13479 1-86, looked up, variant S63A)
Colicin-E9 immunity protein: B18 Colicin-E9 immunity protein with A24N, S63A
B22: 1EMV SA29A (protein, UniProt P13479 1-86, looked up, variant S29A)
Colicin-E9 immunity protein: B18 Colicin-E9 immunity protein with A24N, S29A
B23: 1EMV SA50A (protein, UniProt P13479 1-86, looked up, variant S50A)
Colicin-E9 immunity protein: B18 Colicin-E9 immunity protein with A24N, S50A

system: PPIs of the SKEMPI data set (by PDBID); test: SKEMPI experimental ΔΔG, single mutations to alanine; assay type: binding; details: class by ΔΔG threshold 4.184 kJ/mol; ref SKEMPI

Molecule | sk_class (class of the SKEMPI experimental ΔΔG)
B1 | Positive (positive (a hot residue) ΔΔG ≥ 4.184 kJ/mol)
B2 | Neutral (neutral (little effect) 4.184 kJ/mol < ΔΔG > −4.184 kJ/mol)

same assay, conditions: class of the SKEMPI experimental ΔΔG

Molecule | sk_class
B3 | Neutral (neutral (little effect) 4.184 kJ/mol < ΔΔG > −4.184 kJ/mol)
B4 | Positive (positive (a hot residue) ΔΔG ≥ 4.184 kJ/mol)
B5 | Neutral (neutral (little effect) 4.184 kJ/mol < ΔΔG > −4.184 kJ/mol)
B6 | Neutral (neutral (little effect) 4.184 kJ/mol < ΔΔG > −4.184 kJ/mol)
B7 | Neutral (neutral (little effect) 4.184 kJ/mol < ΔΔG > −4.184 kJ/mol)
B8 | Positive (positive (a hot residue) ΔΔG ≥ 4.184 kJ/mol)
B9 | Neutral (neutral (little effect) 4.184 kJ/mol < ΔΔG > −4.184 kJ/mol)
B10 | Neutral (neutral (little effect) 4.184 kJ/mol < ΔΔG > −4.184 kJ/mol)
B11 | Neutral (neutral (little effect) 4.184 kJ/mol < ΔΔG > −4.184 kJ/mol)
B12 | Neutral (neutral (little effect) 4.184 kJ/mol < ΔΔG > −4.184 kJ/mol)
B13 | Neutral (neutral (little effect) 4.184 kJ/mol < ΔΔG > −4.184 kJ/mol)
B14 | Neutral (neutral (little effect) 4.184 kJ/mol < ΔΔG > −4.184 kJ/mol)
B15 | Neutral (neutral (little effect) 4.184 kJ/mol < ΔΔG > −4.184 kJ/mol)
B16 | Neutral (neutral (little effect) 4.184 kJ/mol < ΔΔG > −4.184 kJ/mol)
B17 | Neutral (neutral (little effect) 4.184 kJ/mol < ΔΔG > −4.184 kJ/mol)
B18 | Neutral (neutral (little effect) 4.184 kJ/mol < ΔΔG > −4.184 kJ/mol)
B19 | Neutral (neutral (little effect) 4.184 kJ/mol < ΔΔG > −4.184 kJ/mol)
B20 | Neutral (neutral (little effect) 4.184 kJ/mol < ΔΔG > −4.184 kJ/mol)
B21 | Neutral (neutral (little effect) 4.184 kJ/mol < ΔΔG > −4.184 kJ/mol)
B22 | Neutral (neutral (little effect) 4.184 kJ/mol < ΔΔG > −4.184 kJ/mol)
B23 | Positive (positive (a hot residue) ΔΔG ≥ 4.184 kJ/mol)

system: PPIs of the SKEMPI data set (by PDBID); test: not given; details: single mutation to alanine; PPI given by PDBID; sheet sortedByGroup, r_group DERKH; ref SKEMPI; cited from earlier work

Molecule | sk_ddG_kJ (SKEMPI experimental ΔΔG, mutation to alanine)
B1 | 14.56 kJ
B2 | -0.92 kJ

same assay, conditions: single mutation to alanine; complex given by PDBID; residue group SQNT; ref SKEMPI; cited from earlier work

Molecule | sk_ddG_kJ (SKEMPI experimental ΔΔG)
B3 | -0.54 kJ
B4 | 9.67 kJ
B5 | 0.50 kJ
B6 | 0.08 kJ
B7 | -0.67 kJ
B8 | 5.44 kJ
B9 | 0.46 kJ
B10 | -0.04 kJ
B11 | 0.59 kJ
B12 | -0.29 kJ
B13 | 0.00 kJ
B14 | 0.00 kJ
B15 | 0.75 kJ
B16 | -0.08 kJ
B17 | 1.67 kJ
B18 | 0.59 kJ
B19 | 1.26 kJ
B20 | 0.04 kJ
B21 | 3.64 kJ
B22 | 4.02 kJ
B23 | 9.16 kJ
